Test results: patent publication US11497788B2, “Supramolecular glycosaminoglycans” (Northwestern University, priority 2015, dated 2022)

What was measured:
noggin = target: T1, noggin (Mus musculus, UniProt P97466); assay: Noggin inhibition of BMP-2 activity in C2C12 cells; format: cell-based, murine; details: during osteoblast differentiation of C2C12
T1 construct: purchased PeproTech; host or cells: E. coli
T1 sequence (P97466 with tags, fused parts or gaps): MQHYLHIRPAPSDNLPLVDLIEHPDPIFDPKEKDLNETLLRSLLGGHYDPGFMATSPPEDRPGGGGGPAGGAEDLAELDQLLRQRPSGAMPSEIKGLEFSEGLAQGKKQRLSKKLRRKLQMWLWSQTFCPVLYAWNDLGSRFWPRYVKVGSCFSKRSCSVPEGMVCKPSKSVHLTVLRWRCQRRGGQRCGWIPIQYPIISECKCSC
Method: (§1) C2C12 Cell Culture: C2C12 mouse myoblasts (ATCC) were maintained in Dulbecco's Modified Eagle's Medium with high glucose and L-glutamine (DMEM, ATCC), supplemented with 100 U/mL of penicillin and 100 μg/mL streptomycin (P/S, Life Technologies) and 10% heat inactivated FBS (Life Technologies), and passaged at 80-90% confluence. Media was changed every 2 days. Passages 3 to 8 were used for experiments. Cells were grown at 37° C., 5% CO2 in a humidified atmosphere. Cells were detached following a 3 minute incubation at 37° C. with 0.05% Trypsin-EDTA (Life Technologies), then resuspended in DMEM (10% FBS). Unless stated otherwise, cells were seeded at 75,000 cells/mL (400 μL/well in a 48-well plate), and allowed to attach for a minimum of 3 hours prior to experiments.
(§2) C2C12 Osteoblast Differentiation: PA samples were thermally annealed as described for Cryo-TEM. PA solutions were spun down, pipetted for homogeneous mixing, then diluted to 1 mM with DMEM (no FBS). […] Cells were cultured for 3 days without changing the media, and osteoblast differentiation was assessed.
(§3) Alkaline Phosphatase Activity: Alkaline phosphatase (ALP) activity was measured as a marker of osteoblast differentiation (ref. 38; incorporated by reference in its entirety). […] The ALP activity was assessed by reading the OD at 630 nm with Cytation3 microplate reader (BioTek). […]

BMP-2 [1] = target: T2, BMP-2 (Homo sapiens, UniProt P12643); assay: Confocal fluorescence imaging of Cy5-labeled BMP-2 with PA nanofibers; format: binding; details: co-assembled with Cy3-PA 5 mol %; mixed 24 h
T2 construct: purchased Medtronic Sofamor Danek (Minneapolis, Minn.)
T2 sequence (P12643 283-396): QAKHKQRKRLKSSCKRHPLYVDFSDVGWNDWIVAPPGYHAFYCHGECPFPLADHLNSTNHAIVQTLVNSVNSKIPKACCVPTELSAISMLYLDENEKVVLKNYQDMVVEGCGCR
Method: Confocal Fluorescence Imaging: PA 1, PA 4, and Cy3-PA were dissolved to 6.6 mM in saline with 6.6 mM CaCl2, pH 7.2. […] Following, PA solutions were mixed with Cy5-BMP-2 (57 μM) at 10:1 vol. ratio to yield [PA]=6 mM and [BMP-2]=5.2 μM, and incubated overnight. For confocal imaging, 20 μl of the solutions containing Cy5-labeled protein and Cy3-Labeled PA nanofibers were coverslipped in IMMU-MOUNT (Termo Scientific) and visualized using a Nikon A1R confocal laser-scanning microscope with GaAsP detectors.

[2] = test system: BMP-2 signaling in C2C12 cells; assay: C2C12 osteoblast differentiation with BMP-2, alkaline phosphatase (ALP) activity; format: cell-based, mouse; details: C2C12, BMP-2 75 ng/mL, 3 days
Method: as §1
C2C12 Osteoblast Differentiation: PA samples were thermally annealed as described for Cryo-TEM. PA solutions were spun down, pipetted for homogeneous mixing, then diluted to 1 mM with DMEM (no FBS). In a 1.5 mL microcentrifuge tube, PA solutions were further diluted with DMEM (5% FBS), gently vortexed, and appropriate amounts of GFs (20 μg/mL) were added to yield [PA]=125 μM and [GF]=375 ng/mL. For mixing, the microcentrifuge tube was gently inverted several times by hand. Following, cells were treated by adding a 100 μl, of the PA/GF mixture per well (48-well plate), yielding a final 500 μl, differentiation medium with [PA]=25 μM and [GF]=75 ng/mL. For controls, the initial 5 mM PA solution was substituted with either PBS alone (saline) or heparin in PBS at appropriate concentrations. Cells were cultured for 3 days without changing the media, and osteoblast differentiation was assessed.
Alkaline Phosphatase Activity: Alkaline phosphatase (ALP) activity was measured as a marker of osteoblast differentiation (ref. 38; incorporated by reference in its entirety). On day 3, media was removed, and cells were lysed with a 100 μL, of M-PER Mammalian Protein Extraction Reagent (Life Technologies), supplemented with 1×Halt Protease Inhibitor Cocktail (Thermo Fisher Scientific), for 30 minutes on an orbital shaker. A 20 μL, volume of the cell lysate was incubated with 200 μL, of the QUANTI-Blue colorimetric ALP assay (InvivoGen) for 30 minutes to 2 hours at 37° C., in duplicates. The ALP activity was assessed by reading the OD at 630 nm with Cytation3 microplate reader (BioTek). Data were normalized to the respective endogenous DNA levels using Quant-iT PicoGreen dsDNA Assay Kit (Life Technologies). Two separate experiments with 4 replicates each were averaged for statistical analysis. […]

BMP-2 [3] = target: T2, BMP-2; assay: BMP-2 stability assay (ELISA) in C2C12 culture; format: cell-based; details: 75 ng/mL BMP-2; 0, 3, 9, 24 h
Method: BMP-2 Stability Assay: C2C12 cells were seeded at 150,000 cells/mL (500 μL/well in a 48-well plate) and incubated overnight. Following, the media was replaced with treatment media (75 ng/mL BMP-2 in the presence/absence of PA 1, PA 4, and monosaccharide 1. The media was collected at 0, 3, 9, and 24 h and stored at −80° C. prior to BMP-2 quantification. In addition, the cell monolayers were lysed at the indicated time with a 100 μL of M-PER Mammalian Protein Extraction Reagent, supplemented with 1×Halt Protease Inhibitor Cocktail, and also stored at −80° C. prior to BMP-2 quantification. The amount of BMP-2 present in the media and cell extracts was assayed using a BMP-2 Quantikine ELISA kit (R&D Systems) according to the manufacturer's specifications.

[4] = Zeta potential measurements; format: physicochemical
Method: Zeta Potential Measurements: Zeta (ζ) potential was measured using a Malvern Zetasizer Nano ZS (n=3). PA samples were thermally annealed as described for Cryo-TEM. Following, PAs were diluted to 0.5 mM in DMEM. PA solutions were water-bath sonicated for 1 min prior to zeta potential measurement. Background reading from DMEM alone was subtracted from the final measurements.

Factor Xa = details: compared to heparin
Method: Anticoagulation Assay: PA 1 was dissolved to 5 mM in saline with 5 mM CaCl2), pH 7.2, thermally annealed at 80° C. for 30 min and slowly cooled to room temperature. The PA solution was spun down, pipetted for homogeneous mixing, and diluted to 0.25, 2.5, 25, and 100 μM in saline with 2 mM CaCl2). The anticoagulant activities of PA 1 and heparin were assessed by monitoring the activity of Factor Xa, a coagulation cascade enzyme inhibited by heparin-activated antithrombin. The assay was performed using the COATEST Heparin Kit (Chromogenix) according to the manufacturer's instructions. Values were represented as the relative bioactivity of Factor Xa when compared to treatment group treated with saline only.

[5] = test system: EHBMP-2 (BMP-2 mutated at the N-terminal heparin-binding domain) in C2C12 cells; assay: ALP activity in C2C12 cells with mutant EHBMP-2; format: cell-based, mouse; details: mutant BMP-2 with negligible heparin binding
Method: as §1, §2, §3

## 3,4,6S-GlcNAc PA (VVAAEEK) [PA 1, glycosylated peptide amphiphile: Alkyne PA click-conjugated with trisulfated monosaccharide 1]
noggin
  protection of BMP-2 from noggin antagonist: successfully protected
BMP-2 [1]
  colocalization of Cy5-labeled BMP-2 with PA nanofibers: strong colocalization
[2]
  effect on BMP-2 activity / osteoblast differentiation (in words): dramatically amplified
BMP-2 [3]
  BMP-2 stability in cell culture media: improved BMP-2 stability
[4]
  zeta potential / net charge of nanofibers: highest net negative charge
Factor Xa
  anticoagulation activity (Factor Xa activity): minimal anticoagulation activity
[5]
  ALP expression using EHBMP-2: minimally affected
